Reference: PMC5093072 (Structure (London, England : 1993), 2016)

B1: double mutant T2D/A4V-SOD1, unmodified (enzyme)
chain: not shown
modifications: for SPR: biotinylated on one subunit (EZ-link NHS-LC-LC-biotin)
B2: glutathionylated T2D/A4V-SOD1 (GS-T2D/A4V-SOD1), C111-glutathionylation enriched species (enzyme)
chain: not shown
modifications: glutathionylation at C111 (enriched species); for SPR: biotinylated on one subunit (EZ-link NHS-LC-LC-biotin)

Tests used:
SEC = molecular target: the molecule itself; experiment: SEC
SPR = molecular target: the molecule itself; experiment: SPR

Protein | stoichiometry N (SEC) | koff (SPR)
B1 | 2 | 0.000156 s⁻¹
B2 | 2 | 0.000161 s⁻¹
